This is an account of results in patent publication JPH11332563A (dated 1999).

Assay [1] concerns the target T1, ヒト可溶性CD4 (human soluble CD4 prepared in Example 2, C-terminal FLAG-tag, from COS7 cells) (human, UniProt P01730 26-396).
T1 construct: extracellular domain; no cleavage site is stated; also called ヒトCD4; CD4分子
Kind of assay: SPR (BIAcore 2000), antibody amine-coupled on CM5, soluble CD4 as analyte. On the technique in general: SPR reads the build-up and loss of mass on a sensor chip optically.

For assay [2], the target named is T1, ヒト可溶性CD4 (human soluble CD4 prepared in …). Kind of assay: SPR (BIAcore 2000), soluble CD4 amine-coupled on CM5, antibody (50 ug/ml) as analyte.

B1: 4H5 抗体 (monoclonal antibody produced by Mouse-Mouse hybridoma 4H5, FERM P-16807) (antibody, IgG1, V domains shown)
VH: QVQLQQSGPELVKPGASVKMSCKASGYTFTDYVINWLNQRTGQGLEWIGEIYPGSGSAYYNEMFKGKATLTADKSSNTAYMQLSSLTSEDSAVYFCARRGTGTGFAYWGRGTLVTVSA
VL: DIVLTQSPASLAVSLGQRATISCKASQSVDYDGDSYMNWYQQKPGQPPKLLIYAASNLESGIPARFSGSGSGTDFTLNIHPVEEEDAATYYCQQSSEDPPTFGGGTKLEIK
notes: also called 4H5 antibody; 抗ヒトCD4抗体 4H5
In general, Kd refers to the constant that tells how readily two partners part at equilibrium. A high value points to lower affinity. In general, koff refers to the rate constant with which the complex falls apart. Higher therefore signals a short-lived complex. Usually kon stands for the second-order rate constant of association. Read a low kon as slow association. Take B1: in assay [1], the dissociation constant Kd came to 1.71 nM, the “fold higher binding affinity than 13B8.2抗体 (comparison of KD)” value is around 4.4 fold, the off-rate constant (koff) worked out at 0.000231 s⁻¹ and the kon worked out at 135000 M⁻¹ s⁻¹. In assay [2], this molecule gave a Kd of 0.808 nM, a koff of 5.33e-06 s⁻¹ and a kon of 6600 M⁻¹ s⁻¹.

B2: キメラ 4H5抗体 (ヒトマウスキメラ抗CD4抗体, expressed from pG14H5 in COS7 cells) (antibody, V domains shown)
VH: QVQLQQSGPELVKPGASVKMSCKASGYTFTDYVINWLNQRTGQGLEWIGEIYPGSGSAYYNEMFKGKATLTADKSSNTAYMQLSSLTSEDSAVYFCARRGTGTGFAYWGRGTLVTVSA
VL: not shown
In assay [2], B2 gave a dissociation constant (Kd) of 1.24 nM, a koff of 2.92e-05 s⁻¹ and a kon of 23600 M⁻¹ s⁻¹.
